Results reported in article PMC9687980 (Bioengineering, 2022).

What was measured:
[1] = molecular target: T1, spike RBD of SARS-CoV-2 Omicron expressed in a mammalian system (SARS-CoV-2 Omicron, taken as BA.1, strain, N-linked glycans appended on N331 and N343); experiment: ELISA; 4 ug of recombinant RBD immobilised on a high-binding plate; blocked with 4% skim milk; serial-diluted antibody in PBST; detected with Protein A-HRP, 450 nm; settings: both partners purified
T1 construct: also called Mammalian RBDomi; mammalian cell-expressing RBDomi

[2] = molecular target: T2, MBP-fused spike receptor binding domain of SARS-CoV-2 Omicron BA.1 (MBP-RBDomi) (SARS-CoV-2 Omicron BA.1 (GenBank …, strain)); experiment: as above; settings: both partners purified
T2 construct: also called MBP-fused Omicron RBD; MBP-RBD_(omicron)

B1: CR3022, human IgG1 (antibody, V domains shown)
VH: QMQLVQSGTEVKKPGESLKISCKGSGYGFITYWIGWVRQMPGKGLEWMGIIYPGDSETRYSPSFQGQVTISADKSINTAYLQWSSLKASDTAIYYCAGGSGISTPMDVWGQGTTVTV
VL: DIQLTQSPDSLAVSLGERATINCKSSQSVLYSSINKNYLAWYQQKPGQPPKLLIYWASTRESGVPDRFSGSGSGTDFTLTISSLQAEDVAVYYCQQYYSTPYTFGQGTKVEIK
notes: IgG1
- binding result [1]: binds
- binding result [2]: binds
